In one data set the target is T1, AtSNAT1 (Arabidopsis thaliana, UniProt Q7X9V3).
T1 construct: gene NSI
In words: HPLC of N-acetylserotonin formed. In kind it is biochemical. The note with it: serotonin 0.5 mM.

Substrate in data set [1]: COc1ccc2[nH]cc(CCN)c2c1
In words: HPLC of melatonin formed, Lineweaver-Burk. The data set is classed as biochemical, Arabidopsis thaliana. The following applies: acetyl-CoA 0.5 mM, 100 mM potassium phosphate pH 7.8, 45 °C.

Substrate in data set [2]: NCCc1c[nH]c2ccc(O)cc12
In words: HPLC of N-acetylserotonin formed, Lineweaver-Burk. In kind it is biochemical, Arabidopsis thaliana. The note with it: acetyl-CoA 0.5 mM, 100 mM potassium phosphate pH 7.8, 45 °C, printed as Km for NAS (synthesis).

T1 sequence (Q7X9V3 59-258): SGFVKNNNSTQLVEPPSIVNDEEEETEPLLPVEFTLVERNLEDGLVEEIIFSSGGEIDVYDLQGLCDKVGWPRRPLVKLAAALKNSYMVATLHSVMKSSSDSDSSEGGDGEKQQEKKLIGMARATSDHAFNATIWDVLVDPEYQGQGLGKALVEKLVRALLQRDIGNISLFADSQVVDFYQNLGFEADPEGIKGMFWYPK

Turning to `NCCc1c[nH]c2ccc(O)cc12` [serotonin], at AtSNAT1, the “HPLC of N-acetylserotonin formed” value is listed as “Melatonin-mediated inhibition of NAS synthesis by recombinant AtSNAT1”.

B1: AtSNAT2 (Arabidopsis thaliana) (protein)
chain: MFLGGTISTPPASLRLRSTLNPQNAVTQSSSQATFPAAMQRKPPSYSISDEDLESRGFLLRRTTEGLNLDQLNSVFAAVGFPRRDTAKIEVALQHTDALLWVEYEKTRRPVAFARATGDGVFNAIIWDVVVDPSFQSCGLGKAVMERLIEDLQVKGICNIALYSEPRVLGFYRPLGFVSDPDGIKGMVFIRKQRNKK
notes: kinetics text says recombinant AtSNAT2 (not the truncated form)
For B1, the figures for the Km in data set [1] and in data set [2] were 630 µM and 232 µM, respectively.
